Experiment [1] deals with EGF antigen on the surface of the NCI-H292 cell membrane (proEGF) (human) (UniProt P01133). The experiment is described as follows: flow cytometry on NCI-H292 cells, control IgG1 1 µg, PerCP secondary. Background: Flow cytometry measures light scatter and fluorescence of single cells or particles in a stream.
Experiment [2] has the same target. The experiment is described as follows: flow cytometry on NCI-H292 cells, control IgG1 1 µg, FITC secondary.

The results in this text go back to US20040038369A1, “Airway-specific trypsin-like enzymes and method of using the same” (priority 2000, published 2004).

EGF antigen on the surface of the NCI-H292 cell membrane (proEGF) (human), sequence (P01133 23-1207): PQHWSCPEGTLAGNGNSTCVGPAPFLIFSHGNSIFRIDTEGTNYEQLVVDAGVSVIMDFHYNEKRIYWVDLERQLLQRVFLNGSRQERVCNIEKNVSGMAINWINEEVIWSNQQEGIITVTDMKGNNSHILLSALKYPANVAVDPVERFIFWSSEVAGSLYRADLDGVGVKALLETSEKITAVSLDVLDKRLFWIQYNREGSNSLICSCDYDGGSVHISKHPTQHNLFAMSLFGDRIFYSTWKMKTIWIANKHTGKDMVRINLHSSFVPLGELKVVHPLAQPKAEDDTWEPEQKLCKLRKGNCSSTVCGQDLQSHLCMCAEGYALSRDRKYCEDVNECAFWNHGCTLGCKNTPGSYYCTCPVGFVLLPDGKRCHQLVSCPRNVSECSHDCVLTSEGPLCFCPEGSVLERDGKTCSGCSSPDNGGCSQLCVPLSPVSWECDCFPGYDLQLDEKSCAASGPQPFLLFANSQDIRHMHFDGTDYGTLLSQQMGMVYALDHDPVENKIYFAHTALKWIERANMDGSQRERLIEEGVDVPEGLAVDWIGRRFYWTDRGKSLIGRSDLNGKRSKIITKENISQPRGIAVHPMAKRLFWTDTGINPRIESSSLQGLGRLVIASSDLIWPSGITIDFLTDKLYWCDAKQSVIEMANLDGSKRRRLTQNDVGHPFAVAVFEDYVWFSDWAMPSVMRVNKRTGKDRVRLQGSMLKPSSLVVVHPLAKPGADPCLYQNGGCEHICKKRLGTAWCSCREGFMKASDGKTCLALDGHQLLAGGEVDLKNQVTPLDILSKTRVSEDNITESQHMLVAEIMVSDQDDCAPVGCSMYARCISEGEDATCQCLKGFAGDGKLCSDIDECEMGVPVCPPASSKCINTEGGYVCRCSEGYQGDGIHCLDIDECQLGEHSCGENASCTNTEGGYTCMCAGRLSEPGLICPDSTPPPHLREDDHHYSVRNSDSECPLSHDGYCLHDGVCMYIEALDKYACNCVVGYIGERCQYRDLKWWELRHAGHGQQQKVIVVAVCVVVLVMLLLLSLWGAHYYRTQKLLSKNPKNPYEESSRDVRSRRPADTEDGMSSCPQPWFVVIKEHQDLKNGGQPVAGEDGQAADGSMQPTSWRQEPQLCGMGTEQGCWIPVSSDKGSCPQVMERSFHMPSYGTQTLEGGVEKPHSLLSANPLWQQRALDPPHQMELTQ

Consider “normal mouse IgG1 (produced by R & D Corp.) (antibody)”, for which the average fluorescence intensity (back ground) in experiment [1] came out at 8.44; in experiment [2] it was 4.62.
